Experimental data from the supplement of paper PMC9170038.

Test system: MS2 coat protein
Test: apparent KD of MS2 coat protein; designed switch direction (-1 OFF switch, 1 ON switch): -1; higher = weaker reporter binding
Summary of the method: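 The reported apparent KD is a per-design median over clusters, from curve fits of normalised cluster fluorescence. Protein titrations used SNAP-549-labelled MS2 coat protein, doubled from 0.7 or 1.5 nM to 3 µM, in Tris-HCl pH 7.5 buffer with KCl, MgCl2, BSA, DTT, tRNA and Tween-20, with no input, 200 uM small-molecule ligand, or an oligonucleotide input. The RNA switches were transcribed on Illumina chips by stalled E. coli RNA polymerase.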

[1] = input ligand: microRNA oligo, concentration not stated
[2] = Eterna round: R95, input ligand: microRNA oligo, concentration not stated

Sequence	apparent KD of MS2 coat protein (input ligand: FMN 200 uM)	apparent KD of MS2 coat protein [1]	apparent KD of MS2 coat protein (input ligand: none)	apparent KD of MS2 coat protein (Eterna round: R95, input ligand: FMN 200 uM)	apparent KD of MS2 coat protein [2]	apparent KD of MS2 coat protein (Eterna round: R95, input ligand: none)
UGUACGAUGCGUGCUGACAUGCGUCGUGCAGCAGGUGGAACAUGAGGAUCACCCAUGUCCUCAUUUGCUCGUCUUAU [Mat - Sensor v3 - Turn-off var 2 - D21] (Eterna round: R96, puzzle: Sensor v3, turn-off variant 2)	35.1 nM	104 nM	39.1 nM			
UGUACGAUGCGUGCUGACAUGCGUCGUGCAGCAGGUGGAACAUGAGGAUCACCCAUGUCCUCAUUUGCUCGUCUUAU [Mat - Sensor v3 - Turn-off var 2 - D21] (puzzle: Sensor v3, turn-off variant 2)				35.2 nM	155 nM	34.6 nM
UGUCAAGCAGGAUAUGCACGUAAUAACAUGAGGAUCACCCAUGUGACCGAUUUAUAUUCUGCAGAAGGGCUUGUUU [LRO-Excl5-19-mod of Erxesoan mod by Eli Fisker] (Eterna round: R97, puzzle: Exclusion 5)	109 nM		26.7 nM			
UGUGUGCUGCGAGGAUAUACAUGAGGAUCACCCAUGUAAAUGUGUGAGGCUUUGCCUCACACAAUGUAGAAGGCGCAGUACACU [Mat - Exclusion NG 2 - Mod of JL - D4] (Eterna round: R96, puzzle: Exclusion NG 2)	16.9 nM	9.63 nM	11.6 nM			
UGUUCGCGAGGAUAUGCAUUCGAGUCCAUUACGUGUCUGGGACUUGAGGAUCACCCAAGUAGAAGGCGUCUCAC [salish99_ex2_r4_645] (Eterna round: R97, puzzle: Exclusion 2)	115 nM		122 nM			
UGUUGUCGCGCAGGAUAUGUAUGAGGAUCACCCAUUAAUAAAUUUUAACCACGAGGAUCACCCGUGUAGAAGGGCGCGACAACA [pwkr exNG2 2xF5 1xFMN.17] (Eterna round: R96, puzzle: Exclusion NG 2)	36.6 nM	19.7 nM	33.1 nM			
UGUUGUCGCGUAGGAUAUGGCCAACAGGCCGUAGGAUAUGGGAAACCAGAAGGACCGCCAACAGGCGAGAAGGACGGGACAACU [pwkr exNG2 2xF7 2xFMN.21] (Eterna round: R96, puzzle: Exclusion NG 2)	127 nM	49.4 nM	72 nM			
UGUUGUUACGCAGGAUAUGUAUGAGGAUCACCCAUAAAACACACACUCCCAUGAGGAUCACCCAUGUAGAAGGGCGGGUUAACA [pwkr exNG2 2xF5 1xFMN.8] (Eterna round: R96, puzzle: Exclusion NG 2)	124 nM	54.9 nM	80.8 nM			
UGUUGUUACGUAGGAUAUUGUCAACAGGCAGUAGGAUAUGCGAAAGCAGAAGGACCGCCAACAGGCGAGAAGGACGGGUUAACA [pwkr exNG2 2xF7 2xFMN.3] (Eterna round: R96, puzzle: Exclusion NG 2)	614 nM	514 nM	42.7 nM			
UGUUGUUGCGCAGGAUAUUGCCAACAGGCAGUAGGAUAUCCGAAAGGAGAAGGACCGCCAACAGGCGAGAAGGGCGGGACAACU [pwkr exNG2 2xF7 2xFMN.12] (Eterna round: R96, puzzle: Exclusion NG 2)	93.9 nM	44.5 nM	64.3 nM			
UUAAAUCAUGUAGGAUAUGCGUGGCGAAGCUAUGCAGAAGGACAUGAGGAUCACCCAUGUUCUAGCGUCUGCGUACAGAUGCAA [JL ENG1 1.10] (Eterna round: R96, puzzle: Exclusion NG 1)	93.1 nM	17.5 nM	17.5 nM			
UUAAAUCAUGUAGGAUAUGCGUUGCGAAGCGAUGCAGAAGGACAUGAGGAUCACCCAUGUGCUAGCGUCCGCGUACGGAUGCAA [Mat - Exclusion NG 1 - Mod of JL - D60] (Eterna round: R96, puzzle: Exclusion NG 1)	172 nM	65.3 nM	52 nM			
UUAAAUCAUGUAGGAUAUGCUUUGCGAAGCGAGGCAGAAGGACAUGAGGAUCACCCAUGUGCUAGCGUCCGAGUACGGAUGCAA [Mat - Exclusion NG 1 - Mod of JL - D62] (Eterna round: R96, puzzle: Exclusion NG 1)	214 nM	62.6 nM	83.3 nM			
UUAAUACAUGUAGGAUAUGCGUGGCGAAGCUAUGCAGAAGGACAUGAGGAUCACCCAUGUCUAUGCGUCCGCGUACGGAUGCAA [JL Eng1 1.21 mod 6] (Eterna round: R96, puzzle: Exclusion NG 1)	18.4 nM	9.06 nM	16.4 nM			
UUAAUGAUUGUGAGGAUAUCGGAUAGAUAGAUAUUUGAGAAGGUACAUGAGGAUCACCCAUGUGUGAUUAGAGA [Brourd's EX4 #67] (Eterna round: R97, puzzle: Brourd's mod of Exclusion 4)	155 nM		111 nM			
UUAAUGUGAGGAUAUCAGGUGUGCUAGAGAACUGGUACAUCUGAGAAGGCACAUGAGGAUCACCCAUGUUCUUC [Mat - Exclusion 4 - Mod of JL - D55] (puzzle: Exclusion 4)					36.8 nM	
UUAAUGUGAGGAUAUCAGGUGUGCUAGAGUACUGGUACAUCUGAGAAGGCACAUGAGGAUCACCCAUGUUCUUC [Mat - Exclusion 4 - Mod of JL - D54] (puzzle: Exclusion 4)					34.3 nM	

Sequence	apparent KD of MS2 coat protein (input ligand: FMN 200 uM)	apparent KD of MS2 coat protein [1]	apparent KD of MS2 coat protein (input ligand: none)	apparent KD of MS2 coat protein (Eterna round: R95, input ligand: FMN 200 uM)	apparent KD of MS2 coat protein [2]	apparent KD of MS2 coat protein (Eterna round: R95, input ligand: none)
UUAAUUAAUUAUAUAAGAUCACAUGAGGAUCACCCAUGUAUAUAGGAUAUCAGCUCGAUUAGAGCUGAGAAGGAUAUACAAUAU [ExNG3/3-B1] (Eterna round: R96, puzzle: Exclusion NG 3)	172 nM	138 nM	147 nM			
UUAAUUACGGUGCUUUAACCUCACAUGAGGAUCACCCAUGUGCAGGAUAUCAGCUCGUUUAGAGCUGAGAAGGGCACUGCACCG [ExNG3/11-A2] (Eterna round: R96, puzzle: Exclusion NG 3)	13.9 nM	8.87 nM	13.5 nM			
UUAAUUCUGAUUCUUGAAAUACAUGAGGAUCACCCAUGUUCACAGGAUAUUGAUUAUGGUAGUAACAAGAAGGGUGUAUCAUAU [JR_ExcNG3_Sub039] (Eterna round: R96, puzzle: Exclusion NG 3)		64.8 nM				
UUAGAAAUGUUAGGAUAUUAAUAUUUUUUUAGUAUGAUCUACAUGAGGAUCACCCAUGUUAAUAUUAAGAAGGAACAUUUUAUU [JR_ExcNG2_Sub099] (Eterna round: R96, puzzle: Exclusion NG 2)		71.5 nM				
UUAGAAUUGUUAGGAUAUUAAUUAUUUUUUAGUAUGAUCUACAUGAGGAUCACCCAUGUUAAAUAUAAGAAGGAACGUUUUAUU [JR_ExcNG2_Sub097] (Eterna round: R96, puzzle: Exclusion NG 2)		40.7 nM				
UUAUACGUUGAGGAUAUGCGAAUUAGUAUAGUUGCAGAAGGCGAUACAUGAGGAUCACCCAUGUUCAUGGGCAU [LRO-Ex6-05] (puzzle: Exclusion 6)					135 nM	
UUAUGAGAGCAGGAUAUCUUAUAUUUUUUUUAAAGAGAAGGGCUCACAUGAGGAUCACCCAUGUGGUCCUAGAU [LRO-Excl6-21-mod of 4.86 by jal] (Eterna round: R97, puzzle: Exclusion 6)	234 nM		36.8 nM			
UUAUUAUAUGUAGGAUAUGCAUAUUGUUGUUAUGCAGAAGGACAUGAGGAUCACCCAUGUAUAUUAUUGUUAUAUAUUAUAUAU [Title] (Eterna round: R96, puzzle: Exclusion NG 1)		20.1 nM				
UUAUUGUAUGUAGGAUAUGCGUAUUAUUGUUAUGCAGAAGGACAUGAGGAUCACCCAUGUAUAUUAUUGUUAUAUAUUAUAUAU [Title] (Eterna round: R96, puzzle: Exclusion NG 1)	60.9 nM	22.7 nM	26.7 nM			
UUCACAUGGACAUAAGAUCACAUGAGGAUCACCCAUGUGAAUAACAAGCUUUUUGCUCGUCUUAUGUCCAAUAAUAU [Stov1/14-A3] (Eterna round: R97, puzzle: Sensor, turn-off variant 1)	13.2 nM		13.2 nM			
UUCAGACAUGAGGAUCACCCAUGUGAGGAUAUGAUGCAGCAGUGGUCUACGCUGUGCAUCAGAAGGCACAUGUG (puzzle: Exclusion 1)					99.6 nM	
UUCAUGUAAGGAUAUACCUCGAGCUGAUGAGAGUCUCAAAUGUAGAAGGUACAUGAGGAUCACCCAUGUACAGG [Eternabot (Original) Solution 5] (Eterna round: R97, puzzle: Exclusion 4)	65.2 nM		42 nM			
UUCAUGUGAGGAUAUGUGAUCUGCUUUCUGUGUAGAUGAUCACAGAAGGCACAUGAGGAUCACCCAUGUAGAUC [Ex4 - 3 - 29] (puzzle: Exclusion 4)					77.3 nM	
UUCCUCAUAACAUGAGGAUCACCCAUGUAUUAAUAGAUAACUGAGGAUAUACUAAUAAUGUUUAUGUAGAAGGCAGAUACAGAU [JR_ExcNG3_Sub014] (Eterna round: R96, puzzle: Exclusion NG 3)		40 nM				
UUCCUGUCAGGAUAUGACUAGAUGCACGAAAGUGUUUUUAGUUAGAAGGGACAUGAGGAUCACCCAUGUAGUCC [Bring Us a Shrubbery-19] (puzzle: Exclusion 4)					21.9 nM	
UUCGUGCAGCUUUGCUGUACGCGUACAUGAGGAUCACCCAUGUAGGAUAUGGUAGGCUUUGCUUACUAGAAGGAUAGAGUGAUC [JL EXNG3 1.29] (Eterna round: R96, puzzle: Exclusion NG 3)	80.7 nM	67.8 nM	95.7 nM			
